Experimental data from patent US20040063116.

How the values were obtained:
[1] = target: T1, RNase A zymogen with 104/105 termini, P61823
T1 chain: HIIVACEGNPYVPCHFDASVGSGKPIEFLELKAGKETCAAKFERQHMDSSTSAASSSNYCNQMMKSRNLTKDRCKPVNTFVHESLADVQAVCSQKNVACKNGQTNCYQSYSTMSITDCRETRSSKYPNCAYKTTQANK

[2] = target: T2, RNase A zymogen with 113/114 termini, P61823
T2 chain: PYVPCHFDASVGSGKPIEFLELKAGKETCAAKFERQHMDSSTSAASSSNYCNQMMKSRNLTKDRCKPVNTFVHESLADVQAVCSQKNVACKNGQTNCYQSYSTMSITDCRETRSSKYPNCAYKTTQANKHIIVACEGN

[3] = target: RNase A zymogen with 20/21 termini, P61823
[4] = target: T3, RNase A zymogen with 67/71 termini, P61823
T3 chain: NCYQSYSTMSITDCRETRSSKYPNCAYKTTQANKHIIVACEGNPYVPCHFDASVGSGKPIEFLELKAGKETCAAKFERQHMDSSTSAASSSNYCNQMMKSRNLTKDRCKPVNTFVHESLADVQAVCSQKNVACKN

[5] = target: T4, RNase A zymogen with 88/89 termini, P61823
T4 chain: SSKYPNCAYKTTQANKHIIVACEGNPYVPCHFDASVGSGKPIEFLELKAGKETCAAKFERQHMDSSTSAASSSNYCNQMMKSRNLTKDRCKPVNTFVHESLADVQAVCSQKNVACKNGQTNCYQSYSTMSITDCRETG

Chain of RNase A zymogen with 20/21 termini, P61823 (P61823 whole entry, looked up): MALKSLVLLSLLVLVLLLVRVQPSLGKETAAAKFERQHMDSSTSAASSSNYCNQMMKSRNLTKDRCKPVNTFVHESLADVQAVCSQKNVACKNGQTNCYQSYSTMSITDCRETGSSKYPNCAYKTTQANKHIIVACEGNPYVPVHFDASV

B1: plasmepsin II (protein)
chain: MDITVREHDFKHGFIKSNSTFDGLNIDNSKNKKKIQKGFQILYVLLFCSVMCGLFYYVYENVWLQRDNEMNEILKNSEHLTIGFKVENAHDRILKTIKTHKLKNYIKESVNFLNSGLTKTNYLGSSNDNIELVDFQNIMFYGDAEVGDNQQPFTFILDTGSANLWVPSVKCTTAGCLTKHLYDSSKSRTYEKDGTKVEMNYVSGTVSGFFSKDLVTVGNLSLPYKFIEVIDTNGFEPTYTASTFDGILGLGWKDLSIGSVDPIVVELKNQNKIENALFTFYLPVHDKHTGFLTIGGIEERFYEGPLTYEKLNHDLYWQITLDAHVGNIMLEKANCIVDSGTSAITVPTDFLNKMLQNLDVIKVPFLPFYVTLCNNSKLPTFEFTSENGKYTLEPEYYLQHIEDVGPGLCMLNIIGLDFPVPTFILGDPFMRKYFTVFDYDNHSVGIALAKKNL
- proteolytic cleavage of the zymogen (SDS-PAGE) and gain of ribonucleolytic activity [1]: The proteolytic cleavage by plasmepsin II was complete within 10 minutes at an approximately 1:100 molar ratio of protease to zymogen
- proteolytic cleavage of the zymogen (SDS-PAGE) and gain of ribonucleolytic activity [2]: The proteolytic cleavage by plasmepsin II was complete within 10 minutes at an approximately 1:100 molar ratio of protease to zymogen
- proteolytic cleavage of the zymogen (SDS-PAGE) and gain of ribonucleolytic activity [3]: The proteolytic cleavage by plasmepsin II was complete within 10 minutes at an approximately 1:100 molar ratio of protease to zymogen
- proteolytic cleavage of the zymogen (SDS-PAGE) and gain of ribonucleolytic activity [4]: The proteolytic cleavage by plasmepsin II was complete within 10 minutes at an approximately 1:100 molar ratio of protease to zymogen
- proteolytic cleavage of the zymogen (SDS-PAGE) and gain of ribonucleolytic activity [5]: The proteolytic cleavage by plasmepsin II was complete within 10 minutes at an approximately 1:100 molar ratio of protease to zymogen
